Data as given in patent US20250066477A1 (INHIBRX BIOSCIENCES, published 2025).

B1: cx11498, γδTCR×CD20 bispecific polypeptide (1D7v9 VHH-Fc hole / anti-CD20 VHH-Fc knob) (bispecific antibody, V domains shown)
V domain 1: EVQLLESGGGEVQPGGSLRLSCVASRGKISQYRMGWYRQAPGKELEWVAHISNTGDAAEYVDSVKGRFTISRDSTKNAVYLQMSSLRAEDTAVYKCNSVEDILAWGQGTLVTVKP
V domain 2: QVQLQESGGGLVQPGGSLRLSCAASGRTFSMGWFRQAPRKEREFVAAITYSGGSPYYASSVRGRFTISRDNAKNTVYLQMNSLKPEDTAVYYCAARLTYGSTWSAENWGQGTQVTVKP
notes: also called γδ TCRxCD20; anti-CD20×Vγ9-1D7v9
B2: cx12083, γδTCR×CD33 bispecific polypeptide (anti-CD33 VHH-Fc knob / 1D7v9 VHH-Fc hole) (bispecific antibody, V domains shown)
V domain 1: EVQLVESGGGEVQPGGSLRLSCAASRSSGIDVMGWYRQAPGKERELVAEISGVGDTNYAASLADRFTVSRDNAKNTVYLQMSSLRAEDTAVYYCNAHSFLDLVGAWGQGTLVTVKP
V domain 2: EVQLLESGGGEVQPGGSLRLSCVASRGKISQYRMGWYRQAPGKELEWVAHISNTGDAAEYVDSVKGRFTISRDSTKNAVYLQMSSLRAEDTAVYKCNSVEDILAWGQGTLVTVKP
notes: also called γδ TCRxCD33; CD33×1D7v9
B3: cx12056, CD33×UT (untargeted) monospecific CD33 construct (anti-CD33 VHH-Fc knob / 4GFTv1 VHH-Fc hole) (Fc fusion)
chain 1: EVQLVESGGGEVQPGGSLRLSCAASRSSGIDVMGWYRQAPGKERELVAEISGVGDTNYAASLADRFTVSRDNAKNTVYLQMSSLRAEDTAVYYCNAHSFLDLVGAWGQGTLVTVKPGGGGDKTHTCPPCPAPGGPSVFLFPPKPKDTLMISRTPEVTCVVVDVSHEDPEVKFNWYVDGVEVHNAKTKPREEQYNSTYRVVSVLTVLHQDWLNGKEYKCKVSNKALPAPIEKTISKAKGQPREPQVYTLPPCRDELTKNQVSLWCLVKGFYPSDIAVEWESNGQPENNYKTTPPVLDSDGSFFLYSKLTVDKSRWQQGNVFSCSVMHEALHNHYTQKSLSLSPGK
chain 2: EVQLVESGGGEVQPGGSLRLSCSAAPERAFSNYAMGWFRQAPGKGREFVAGITGSGRSQYYAESVKGRFTISRDNAKNTLYLQMSSLRAEDTAVYYCAARVVPVFSESTKGYVYWGQGTLVTVKPGGGGDKTHTCPPCPAPGGPSVFLFPPKPKDTLMISRTPEVTCVVVDVSHEDPEVKFNWYVDGVEVHNAKTKPREEQYNSTYRVVSVLTVLHQDWLNGKEYKCKVSNKALPAPIEKTISKAKGQPREPQVCTLPPSRDELTKNQVSLSCAVKGFYPSDIAVEWESNGQPENNYKTTPPVLDSDGSFFLVSKLTVDKSRWQQGNVFSCSVMHEALHNRYTQKSLSLSPGK
notes: also called CD33 x UT

How the values were obtained:
[1] = target: T1, human γδ TCR (Vγ9Vδ2) on human γδ T cells (human); experiment: flow cytometry on human PBMC gated on γδ TCR+ (Vγ9Vδ2) T cells, anti-human Fcγ A647
T1 construct: whole, on cells; also called Vδ2+ γδ T cells; Vγ9Vδ2 T cells
Protocol: (§1) The binding activity of a bispecific γδ TCR molecule that binds γδTCR and the representative target antigen CD20 (γδTCR×CD20) comprising anti-γδ VHH domain 1D7v9, an anti-CD20 VHH domain and a heterodimeric knob-in-hole Fc region (cx11498) was assessed by flow cytometry on Raji target cells expressing CD20 and Vγ9Vδ2 T cells. PBMCs and Raji cells were thawed and resuspended to 1.0×10\hat{ }6 cells/ml in FACS buffer. 100,000 PBMCs or Raji cells were seeded in a 96-well plate. Test articles were added at a final starting concentration of 50 nM and titrated across the plate 1:4. Cells were incubated with the antibody for 30 minutes at 4 C, spun down, and washed four times with FACS buffer. Cells were labeled with anti-human Fcγ-A647 (Jackson ImmunoResearch) and PBMCs were also labeled with anti-human δ TCR-FITC (Biolegend) in 50 uL of FACS for 30 minutes at 4 C. The plate was washed twice with FACS buffer, resuspended in FACS buffer and read on the IQue flow cytometer. The mean fluorescent intensity for anti-human Fcγ-A647 was calculated using onboard software and graphed using Graphpad Prism. The γδ TCR×antigen molecule bound to both antigen (CD20) expressing Raji cells (FIG. 7A) and V 9Vδ2 T cells (FIG. 7B) in a titration dependent manner.

[2] = target: T2, CD20 on Raji cells (UniProt P11836 1-297, limits assumed); experiment: flow cytometry on CD20-expressing Raji cells, anti-human Fcγ A647
T2 construct: whole, on cells
T2 sequence (looked up): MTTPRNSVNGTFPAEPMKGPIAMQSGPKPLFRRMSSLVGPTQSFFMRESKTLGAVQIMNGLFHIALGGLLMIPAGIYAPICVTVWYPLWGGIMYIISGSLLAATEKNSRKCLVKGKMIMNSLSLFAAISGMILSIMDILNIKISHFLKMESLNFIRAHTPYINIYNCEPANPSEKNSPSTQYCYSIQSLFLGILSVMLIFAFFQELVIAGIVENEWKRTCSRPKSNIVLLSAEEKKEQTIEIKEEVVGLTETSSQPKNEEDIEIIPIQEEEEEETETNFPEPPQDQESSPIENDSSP
Protocol: as §1

[3] = target: T1, human γδ TCR (Vγ9Vδ2) on human γδ T …; experiment: flow cytometry on zoledronate-expanded human PBMC gated on Vδ2+ cells, anti-human A647
Protocol: (§2) A monospecific CD33 construct comprising an irrelevant second VHH domain instead of a γδTCR VHH domain (CD33×UT; cx12056) was also tested. Briefly, frozen PCMCs (previously treated with zoledronate to expand γδ T cells) were thawed and washed twice using 1×CTL thawing reagent in assay media. Cells were resuspended to 1×10\hat{ }6 cells/mL in FACs buffer and plated on a 96 well plate (100,000 cells/well). The test articles were added in 50 uL to each well at 4× the final starting concentration of 200 nM and titrated 1:4 across. 50 uL of FACS buffer was added for the final total volume of 200 uL. Cells were incubated with the test article at 4 C for 30 minutes, washed three times, and stained with Vd2-PE, CD3-BV785, and anti-human-A647 antibodies in FACS buffer for 30 minutes at 4 C. The cells were then washed 2× with FACS buffer, resuspended in 70 ul of FACS buffer and read on a Novocyte. All the molecules bound to CD33 expressing MOLM-13 (FIG. 8A) and MV4-11 (FIG. 8B) cells in a titration dependent manner. However, only the bispecific γδTCR×CD33 molecule bound to V 9Vδ2 T cells (FIG. 8C) in a titration dependent manner.

[4] = target: T3, CD33 on MOLM-13 and MV-411 cells (UniProt P20138 18-364, limits assumed); experiment: flow cytometry on CD33-expressing MOLM-13 cells, anti-human A647
T3 construct: whole, on cells
Protocol: as §2

T1 sequence (main, as listed by the source): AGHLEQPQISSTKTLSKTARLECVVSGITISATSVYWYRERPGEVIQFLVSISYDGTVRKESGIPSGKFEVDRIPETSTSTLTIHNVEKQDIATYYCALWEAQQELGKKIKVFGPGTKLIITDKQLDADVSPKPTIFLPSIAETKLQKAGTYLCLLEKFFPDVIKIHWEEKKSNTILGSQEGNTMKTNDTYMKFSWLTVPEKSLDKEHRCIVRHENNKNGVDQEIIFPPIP
T3 sequence (P20138 18-364 limits assumed): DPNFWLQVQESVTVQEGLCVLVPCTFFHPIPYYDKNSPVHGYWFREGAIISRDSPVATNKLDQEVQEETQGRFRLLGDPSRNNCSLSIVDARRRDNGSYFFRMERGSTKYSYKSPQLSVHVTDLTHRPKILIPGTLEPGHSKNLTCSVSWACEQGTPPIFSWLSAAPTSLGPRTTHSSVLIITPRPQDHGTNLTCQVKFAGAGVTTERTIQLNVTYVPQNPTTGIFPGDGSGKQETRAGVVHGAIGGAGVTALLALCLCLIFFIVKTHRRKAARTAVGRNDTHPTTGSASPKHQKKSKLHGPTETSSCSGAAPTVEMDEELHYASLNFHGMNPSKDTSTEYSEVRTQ

Binder | EC50 (read off the curve) [1] [nM] | EC50 (read off the curve) [2] [nM] | EC50 (read off the curve) [3] [nM] | binding result [4]
B1 | ~2 | ~5 | – | –
B2 | – | – | ~20 | binds
B3 | – | – | – | binds
